Changes are numbered by the printed parent chain. Names and notes keep the numbering of the source.
T1: TNFR1 (Homo sapiens, UniProt P19438)
T1 chain: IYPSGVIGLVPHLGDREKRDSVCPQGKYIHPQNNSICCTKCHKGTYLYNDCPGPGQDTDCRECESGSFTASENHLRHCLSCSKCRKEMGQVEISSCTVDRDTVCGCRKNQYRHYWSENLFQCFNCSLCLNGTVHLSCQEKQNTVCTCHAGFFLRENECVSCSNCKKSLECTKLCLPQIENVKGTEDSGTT

B1: T97L (designed binder)
chain: SMEEEVEKAAKEYEKKKKEAIEKHLEKLKAKDKEAAERFLKELEEAAKEYAKDEAKTMSEEEAKRRAKKYKEKVLLSELSEEEQKEIKEAEEKLVRLILKYVEEAAK
B2: A20M (designed binder)
chain: B1 chain with A20M, L97T
B3: I98R (designed binder)
chain: B1 chain with L97T, I98R
B4: L40S (designed binder)
chain: B1 chain with L40S, L97T
B5: E49K (designed binder)
chain: B1 chain with E49K, L97T
B6: M58D (designed binder)
chain: B1 chain with M58D, L97T
B7: K100Y (designed binder)
chain: B1 chain with L97T, K100Y
B8: K88C (designed binder)
chain: B1 chain with K88C, L97T
B9: E104Y (designed binder)
chain: B1 chain with L97T, E104Y
B10: E61G (designed binder)
chain: B1 chain with E61G, L97T
B11: A47M (designed binder)
chain: B1 chain with A47M, L97T
B12: K88L (designed binder)
chain: B1 chain with K88L, L97T
B13: K15A (designed binder)
chain: B1 chain with K15A, L97T
B14: A90H (designed binder)
chain: B1 chain with A90H, L97T
B15: I98E (designed binder)
chain: B1 chain with L97T, I98E
B16: V74N (designed binder)
chain: B1 chain with V74N, L97T
B17: A55G (designed binder)
chain: B1 chain with A55G, L97T
B18: K100R (designed binder)
chain: B1 chain with L97T, K100R
B19: E89A (designed binder)
chain: B1 chain with E89A, L97T
B20: K16H (designed binder)
chain: B1 chain with K16H, L97T
B21: K41H (designed binder)
chain: B1 chain with K41H, L97T
B22: T97A (designed binder)
chain: B1 chain with L97A
B23: E103S (designed binder)
chain: B1 chain with L97T, E103S
B24: K23E (designed binder)
chain: B1 chain with K23E, L97T
B25: A10W (designed binder)
chain: B1 chain with A10W, L97T
B26: M58I (designed binder)
chain: B1 chain with M58I, L97T
B27: K27A (designed binder)
chain: B1 chain with K27A, L97T
B28: K85A (designed binder)
chain: B1 chain with K85A, L97T
B29: L75C (designed binder)
chain: B1 chain with L75C, L97T
B30: T97D (designed binder)
chain: B1 chain with L97D
B31: L99R (designed binder)
chain: B1 chain with L97T, L99R
B32: K8W (designed binder)
chain: B1 chain with K8W, L97T
B33: E81L (designed binder)
chain: B1 chain with E81L, L97T
B34: K17L (designed binder)
chain: B1 chain with K17L, L97T
B35: A9L (designed binder)
chain: B1 chain with A9L, L97T
B36: A51I (designed binder)
chain: B1 chain with A51I, L97T
B37: Q84A (designed binder)
chain: B1 chain with Q84A, L97T
B38: A10K (designed binder)
chain: B1 chain with A10K, L97T
B39: Y101Q (designed binder)
chain: B1 chain with L97T, Y101Q
B40: E62S (designed binder)
chain: B1 chain with E62S, L97T
B41: E72G (designed binder)
chain: B1 chain with E72G, L97T
B42: D53N (designed binder)
chain: B1 chain with D53N, L97T
B43: K48N (designed binder)
chain: B1 chain with K48N, L97T
B44: E72Y (designed binder)
chain: B1 chain with E72Y, L97T
B45: A47Y (designed binder)
chain: B1 chain with A47Y, L97T
B46: K52R (designed binder)
chain: B1 chain with K52R, L97T
B47: K69I (designed binder)
chain: B1 chain with K69I, L97T
B48: E62F (designed binder)
chain: B1 chain with E62F, L97T
B49: E81D (designed binder)
chain: B1 chain with E81D, L97T
B50: E81I (designed binder)
chain: B1 chain with E81I, L97T
B51: E49I (designed binder)
chain: B1 chain with E49I, L97T
B52: K27F (designed binder)
chain: B1 chain with K27F, L97T
B53: A46E (designed binder)
chain: B1 chain with A46E, L97T
B54: E86K (designed binder)
chain: B1 chain with E86K, L97T
B55: A47G (designed binder)
chain: B1 chain with A47G, L97T
B56: E3I (designed binder)
chain: B1 chain with E3I, L97T
B57: S77T (designed binder)
chain: B1 chain with S77T, L97T
B58: E14S (designed binder)
chain: B1 chain with E14S, L97T
B59: L43Q (designed binder)
chain: B1 chain with L43Q, L97T

Biological target: T1, TNFR1
Experiment: yeast display SC50

Row | Binder | apparent Kd (screen)
1 | B1 | 1.69 nM
2 | B2 | 0.446 nM
3 | B3 | 1.4 nM
4 | B4 | 0.446 nM
5 | B5 | 10.4 nM
6 | B6 | 22.2 nM
7 | B7 | 0.869 nM
8 | B8 | 0.446 nM
9 | B9 | 0.653 nM
10 | B10 | 1.54 nM
11 | B11 | 0.446 nM
12 | B12 | 0.49 nM
13 | B13 | 0.956 nM
14 | B14 | 0.446 nM
15 | B15 | 4.39 nM
16 | B16 | 16.7 nM
17 | B17 | 8.56 nM
18 | B18 | 1.27 nM
19 | B19 | 1.4 nM
20 | B20 | 0.446 nM

Row | Binder | apparent Kd (screen)
21 | B21 | 0.593 nM
22 | B22 | 1.86 nM
23 | B23 | 0.49 nM
24 | B24 | 0.446 nM
25 | B25 | 3 nM
26 | B26 | 6.43 nM
27 | B27 | 0.79 nM
28 | B28 | 0.539 nM
29 | B29 | 0.49 nM
30 | B30 | 0.446 nM
31 | B31 | 12.5 nM
32 | B32 | 1.54 nM
33 | B33 | 0.653 nM
34 | B34 | 1.69 nM
35 | B35 | 0.956 nM
36 | B36 | 12.5 nM
37 | B37 | 11.4 nM
38 | B38 | 0.49 nM
39 | B39 | 1.27 nM
40 | B40 | 0.49 nM

Row | Binder | apparent Kd (screen)
41 | B41 | 1.54 nM
42 | B42 | 0.79 nM
43 | B43 | 0.49 nM
44 | B44 | 1.4 nM
45 | B45 | 0.49 nM
46 | B46 | 0.49 nM
47 | B47 | 0.446 nM
48 | B48 | 0.446 nM
49 | B49 | 1.69 nM
50 | B50 | 0.593 nM
51 | B51 | 20.2 nM
52 | B52 | 0.49 nM
53 | B53 | 5.84 nM
54 | B54 | 0.593 nM
55 | B55 | 0.593 nM
56 | B56 | 12.5 nM
57 | B57 | 2.25 nM
58 | B58 | 7.07 nM
59 | B59 | 0.446 nM

Reference: publication PMC12416549 (2024)
